Measured values: the RNAGym collection of RNA variant scans (doi:10.1073/pnas.2313332121)

B1: TPR t1 (parent)
chain: GACCAAUCUGCCCUCAGAGCUCGAGAACAUCUUCGGAUGCAGAGGAGGCAGGCUUCGGUGGCGCGAUAGCGCCAACGUCCUCAACCUCCAAUGCAUCCCACCACAUGAUGAUGCCUGAAGAGCCUUGGUUUUUUG

Variants of: B1
Assay: polymerase ribozyme fitness, log enrichment relative to wild type (log ratio); higher = more active; in vitro selection for triplet polymerase activity
In short: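 Frozen incubation at −7 °C formed the core of a single, triplicate in vitro selection round applied to PCR-built, transcribed mutant libraries of each subunit of a heterodimeric triplet polymerase ribozyme. Extended constructs were gel-excised, captured with streptavidin beads and amplified by RT-PCR, and input and output libraries were Illumina-sequenced with a filter of ≥10 input reads and ≥1 read per output. Fitness is the logarithm of genotype enrichment relative to wild-type enrichment, with inverse-variance-weighted replicate averaging, and the logarithm is base 2.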
With GACCAAUCUGCCCUCAGAGCUCGAGAACAUCUUCGGAUGGAGAGGAGGCUGGCUUCGGUGACGCGAUAGCGCCAACGUUCUCAAGCUCCAAUGCAUCCCACCACAUGAUGAUGCCUUAAGUGCCUUGGUUUUUAG [C40G A50U G61A C79U C85G G117U A121U U134A] the “polymerase ribozyme fitness (log ratio)” value was -2.53. With GACCAAUCUGCCCUCAGAGUUCGAGAACAUCUUCGGAUGCAGAGGAGGCAGGCUUCGGUGGCGCGAUAACGCCAACGUCCUCAACCUCCAAUGCAUCCCACCACAUGAUGAUGCCUGAAUAGCCUUGGUUUUUUG [C20U G69A G120U] the “polymerase ribozyme fitness (log ratio)” value was -4.11. In the case of GACCAAUCUGCCCUCAGAGCUCGAGAACAUCUUCGGAUGCAGAGGAGGCACGCUUCGGUGGCGCGAUAGCGCCAACGUCCUCAACCUCCAAUGCAUCCCACCACAUGAUCAUGCCUGAAGAGCCUUGGUUUUUUG [G51C G110C], the “polymerase ribozyme fitness (log ratio)” value is reported as -6.54. With GACCAAUCUGCCCUUAGAGCUCGAGAACAUCUUCGGAUGCAGAGGAGGCAGGCUUCGGUGGCGCGAUAGCGCCAACGUCCUCAACCUCCAAUGCAUCCCACCACAUGAUGAUGCCUGAAGAGCCUUGGUUUUUUU [C15U G135U] the “polymerase ribozyme fitness (log ratio)” value was -2.12. With GACCAAUCUGCUCUCAGAGCUCGAGAACAUCUUCGGAUGCAGAGUAGGCAGGCUUCAGUAGCGCGAUAGCGCCAACGUCCUCAACCUCCAAUGCAUCCCACCACAUGAUGAUGCCGGAAGAGCCUUGGUUUUUUG [C12U G45U G57A G60A U116G] the “polymerase ribozyme fitness (log ratio)” value was -1.77. With GACCAAUCUGCCUUCAGAGCUCGAGAACAUCUUCGGAUGCAGAGGAGGCAGGCUUUGGUGGCGCGAGAGCUCCAACGUCCUCAACCUCCAAUGCAUCCCACCACAGGAUGAUGGCUGAAGAGCCUUGGUUUUUUG [C13U C56U U67G G71U U106G C114G] the “polymerase ribozyme fitness (log ratio)” value was -7.12. With GACCAAUCUGCCCUCAGAGCUCGAGAACAUCUUCGGAUGCAGAGGAGGCAGGCUUCGGUGGCGCGAUAGUGCCAACGUCCUCAACCUCCAAUGCAUCCCACCACAUGGUGAUGCCUGAAGAGCCUUGGUUUUUUG [C70U A108G] the “polymerase ribozyme fitness (log ratio)” value was -2.04. For GACCAAUUUGCCCUCAGAGCUCGAGAACAUCUUCGGAUGCAGAGGAGGCAGGCUUCGGUGGCGCGAUAGCGCCAACGUCCUCAACCUCCAAUGCAUCCCACCACAUGAUGAUGCCUGAAGGGCCUUGGUUUUUUG [C8U A121G], the “polymerase ribozyme fitness (log ratio)” value was 1.42. With GACCAAUCAGGCCUGAGAGCUCGAGAACAUCUUCGGAUGCAGAGGAGGCAGGCUUCGGUGGCGCGAUAGCGCCAACGUCCUCAACCUCCACUACAUCCCACCACAUGAUGAUGCCUGAAGAGCCUUGGUUUUUUG [U9A C11G C15G A91C G93A] the “polymerase ribozyme fitness (log ratio)” value was -3.49. With GACCAAUCUGCCCUCAGAGCUCGAGAACAUCUUCGGAUGCAGAGGAGGCAGGCUUCGGUGGCGUGAUAGCGCCAACGUCCUAAACCUCCAUUGCAUCCCACCACAUGAUGAUGCCUGAAGAGCCUUUGUUUUUUG [C64U C82A A91U G127U] the “polymerase ribozyme fitness (log ratio)” value was -2.81. In the case of GACCAAUCUGCCCUCAGAGCUCGAGAACAUCUUCGGAUGCAGAGAAGGCAGGCUUCGGCGGCGCGAUAGCGCCAACGUCCUCAACAUCCAAUGCAUCCCACCACAUGAUGAUGCCUGAAGAGCCUUGGUUUUUUG [G45A U59C C86A], the “polymerase ribozyme fitness (log ratio)” value is reported as -3.96. For GACCAAUCUGCCCUCAGGGCUCGAGAACAUCUUCGGAUGCAGAGGAGGCAGGCUUCGGUGGCGCGAUUGCGCCAACGUCCUCAACCGCCAAUGCAUCCCACCACAUGAAGAUGCCUGAAGAGCCUUGGUUUUUUG [A18G A68U U87G U109A], the “polymerase ribozyme fitness (log ratio)” value was -5.24. For GACCAAUCUGCCCUCAGAGCUCGAGAACAUCUUCGGAUGCAGAGGAGGCAGGCUUUGGUGGCGCGAUAGCGCUAACGUCCUCAACCUCCAAUGCAUCCCACCACUUGAUGAUGCCUGAAGAGCCUUGGUUUUUUG [C56U C73U A105U], the “polymerase ribozyme fitness (log ratio)” value was -2.37. In the case of GACCAAUCUGCCCUCAGAGCUCGAGAACAUCUUCGGAUGCAGAGGAGGGAGGCUUCGGUGGUGCGAUAGCGCCAACGUCCUCAACCUCCUAUGCAUCCCACCACAUGAUGAUUCCUGAAGAGCCUUGGUUUUUUG [C49G C62U A90U G113U], the “polymerase ribozyme fitness (log ratio)” value is reported as -4.27. For GACCAAUCUGCCCUCAGAGCUCGAGAACAUCUUCGGAUGCAGAGGAGGCAGGCUUCGGUGGCGCGAUAGCGCCAACGUCCUCAACCUCCAAUGCAUCCCACCACAUGAUGAUGCCUGAAGAGCCUUGCUUUUUUG [G128C], the “polymerase ribozyme fitness (log ratio)” value was -2.23. With GACCAAUUUGCCCUCAGAGCUCGAGAACAUCUUCGGAUGCAGAGGAGGCAGGCUUCGGUGGCGCGAUAGCGCCAACGUCCUCAACCUCCAAUGCAUCCCACCACAUGAUGGUGCCUGAAGAGCCUUGGUUUUUUG [C8U A111G] the “polymerase ribozyme fitness (log ratio)” value was 1.25. For GACCACUCUGCCCUCAGAGCUCGAGAACAUCUUCGGAUUCAGAGGAGGCAGGCUUCGGUGGCGCGAUAGCGCCAACUUCCUCAACCUCCAAUGCAUCCCACCACAUGAUGAUUGCUGAAGAGCCUUGGUUUUUUG [A6C G39U G77U G113U C114G], the “polymerase ribozyme fitness (log ratio)” value was -3.79. For GACCAAUCUGCCCUCAGAGCUCGAGAACAUCUUCGGAUGCAGCGAAGCCAGGCUUCGGUGGCGCGAUAGCGCCAACGUCCUCAACCUCCAAUGCAUCCCACCACAUGAUGAUGCCUGAAGAGCCUUGGUUUUUUG [A43C G45A G48C], the “polymerase ribozyme fitness (log ratio)” value was -3.39. In the case of GACCAAUUUGCCCUCAGAGCUCGAGAACAUCUUCGGAUGCAGAGCAGGCAGGCUUCGGUGGCGCGAUAGCGCCAACGUCCUCAACCUCCAAUGCAUCCCACCACAUGAUGAUGCCUGAAGAGCCUUGGUUUUUUG [C8U G45C], the “polymerase ribozyme fitness (log ratio)” value is reported as -0.263. With GACCAAUCUGCCCUCUGAGCUCGAGAACAUCUUCGGAUGCAGAGGAGGCAGGCUUCGGUGGCGCGAUAGCGCCAGCGUCCUCUACCUCCAAUGCAUCCCUCCACAUGAUAAUGCCUGAAGAGCCUUGGUUUUUUG [A16U A75G A83U A100U G110A] the “polymerase ribozyme fitness (log ratio)” value was -4.47. For GACCAAUCUGCCCUUAGAGCUCGAGAACAUCUUCGAAUGCAGAGGAGGCAGGCUUCGGUGGCGCGAUAUCGUCAACGUCCUCAACCUCCAAUGCAUCCCACCACAUGAUGAUGCCUGAAGAGCCUUGGUUUUUUG [C15U G36A G69U C72U], the “polymerase ribozyme fitness (log ratio)” value was -1.55.
